Test results reported in PMC7276322.

Molecular target: CV30 (human)
Assay: BLI

Work on “SARS-CoV-2 receptor binding domain (from UniProt P0DTC2 319-591) (domain or fragment)” yielded a Kd of 3.6 nM.
